From US20210371503A1

B1: MnC4t1p1_A10 (antibody, V domains shown)
VH: QLQVQESGPGLVKPSETLSLTCTVSGASISSNHYFWGWIRQPPGKGLAWIGSMHYSGSTYYNPSLKSRVTISVDTSKNQLSLKLSSVTAADTAVYYCARGVNYYDRNGYYRNDGFDIRGQGTMVTVSS
VL: DIQMTQSPSSLSASVGDRVTITCRASQGIRNDLGWYEQKPGKAPKRLIYAASSLESGVPSRFSGSGSGTEFTLTISSLQPEDFATYYCLQHNTYPFTFGPGTRVDIK
B2: MnC4t2p1_D10 (antibody, V domains shown)
VH: B1 VH
VL: B1 VL
B3: MnC4t2p1_F5 (antibody, V domains shown)
VH: B1 VH
VL: B1 VL

molecular target: monomeric (SARS-CoV-2 S ectodomain monomer) (SARS-CoV-2); test: ELISA, coated monomeric S ectodomain [cont'd]

For B1, which EC50 is on record?
Its EC50 is < 100 µg/mL.

B2 was tested. Which EC50 did it give?
The EC50 was < 100 µg/mL.

Which EC50 does the source give for B3 here?
Its EC50 is < 100 µg/mL.
